The series addresses nsp12 (RdRp catalytic subunit);nsp8;nsp7 (SARS-CoV-2;SARS-CoV-2;SARS-CoV-2, UniProt P0DTD1;P0DTD1;P0DTD1 4393-5324;3943-4140;3860-3942, ||). Briefly: cryo-EM.

The text below walks through data of article doi:10.1101/2020.10.28.358481.

Residue numbers refer to the chain shown, from its start.

B1: scaffold 1 (RMP at -3) (structured_RNA)
RNA 1: UUUUCAUGCAUCGCGUAGGCUCAUACCGUAUUGAGACCUUUUGGUCUCAAUACGGUA
RNA 2: UGAGCCUACGCGAUG
modifications: strand 2 position 13 (written A) is remdesivir monophosphate (RMP, 1'-cyano)
B1: the binding result is “binds”.

B2: scaffold 2 (RMP at -4) (structured_RNA)
RNA 1: B1 RNA 1 with U11C, C12U
RNA 2: UGAGCCUACGCAGUG
modifications: strand 2 position 12 (written A) is remdesivir monophosphate (RMP, 1'-cyano); oligo R-4
As to B2, the binding result is recorded as “binds”.
